Data reported in publication PMC8924211 (Nature Communications, 2022).
“And” between values parts separate entries of the source, which are not always exact repeats. Equal values may be shown once.

Tests used:
[1] = molecular target: SNAP-GAL2R (wild type) (human) (UniProt O43603); assay: AlphaScreen or HTRF; competition: HEK293 cells with SNAP-GAL1R or SNAP-GAL2R labelled with SNAP-Lumi4-Tb; 50 nM galanin-A2 with increasing concentrations of unlabeled ligand, 1 h at room temperature; Ki by the Cheng-Prusoff equation
[2] = molecular target: SNAP-GAL2R (wild type) (human) (UniProt O43603)
[3] = molecular target: SNAP-GAL2R (wild type) (human) (UniProt O43603); remark: listed apart in the source
[4] = molecular target: SNAP-GAL1R (wild type) (human) (UniProt P47211); assay: AlphaScreen or HTRF; competition: HEK293 cells with SNAP-GAL1R or SNAP-GAL2R labelled with SNAP-Lumi4-Tb; 50 nM galanin-A2 with increasing concentrations of unlabeled ligand, 1 h at room temperature; Ki by the Cheng-Prusoff equation
[5] = molecular target: SNAP-GAL1R (wild type) (human) (UniProt P47211)
[6] = molecular target: SNAP-GAL2R (wild type) (human) (UniProt O43603); remark: listed apart in the source
GAL2R over GAL1R = conditions: cited from earlier work
From the text: In contrast, L^4P contacts with equivalent ECL2 residues with weaker hydrophobicity (L169^ECL2, A170^ECL2, and L172^ECL2) in GAL2R (Fig. 3e, Supplementary Fig. 4b). The structural observation is coincident with our peptide truncation assay.

[7] = molecular target: T1, N-terminal-SNAP-tagged GAL2R, wild type (human, UniProt O43603 1-387, Lumi4-Tb on the SNAP tag); assay: AlphaScreen or HTRF; competition binding: HEK293 cells transfected with WT SNAP-tagged receptor and labelled with SNAP-Lumi4-Tb, incubated with 50 nM galanin-A2 and increasing concentrations of the unlabeled ligand, 1 h at room temperature; Ki from IC50 by the Cheng-Prusoff equation; conditions: one partner purified
T1 construct: also called SNAP-GAL2R; GAL2R WT; source: HEK293, transfected, on cells; not shown: SNAP tag, N-terminal, kept
T1 sequence (looked up): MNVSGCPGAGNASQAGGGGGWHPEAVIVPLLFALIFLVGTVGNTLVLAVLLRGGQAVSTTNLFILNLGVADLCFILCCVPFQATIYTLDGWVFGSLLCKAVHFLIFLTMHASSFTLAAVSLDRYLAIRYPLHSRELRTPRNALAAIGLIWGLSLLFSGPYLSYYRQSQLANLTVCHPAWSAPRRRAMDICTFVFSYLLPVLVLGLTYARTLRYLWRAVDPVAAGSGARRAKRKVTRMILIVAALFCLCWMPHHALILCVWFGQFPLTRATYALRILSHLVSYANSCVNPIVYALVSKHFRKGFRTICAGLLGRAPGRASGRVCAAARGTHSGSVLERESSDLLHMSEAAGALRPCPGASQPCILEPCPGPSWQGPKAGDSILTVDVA

[8] = molecular target: T2, N-terminal-SNAP-tagged GAL1R, wild type (human, UniProt P47211 1-349, Lumi4-Tb on the SNAP tag); assay: as above; conditions: one partner purified
T2 construct: also called SNAP-GAL1R; GAL1R WT; source: HEK293, transfected, on cells; not shown: SNAP tag, N-terminal, kept
T2 sequence (looked up): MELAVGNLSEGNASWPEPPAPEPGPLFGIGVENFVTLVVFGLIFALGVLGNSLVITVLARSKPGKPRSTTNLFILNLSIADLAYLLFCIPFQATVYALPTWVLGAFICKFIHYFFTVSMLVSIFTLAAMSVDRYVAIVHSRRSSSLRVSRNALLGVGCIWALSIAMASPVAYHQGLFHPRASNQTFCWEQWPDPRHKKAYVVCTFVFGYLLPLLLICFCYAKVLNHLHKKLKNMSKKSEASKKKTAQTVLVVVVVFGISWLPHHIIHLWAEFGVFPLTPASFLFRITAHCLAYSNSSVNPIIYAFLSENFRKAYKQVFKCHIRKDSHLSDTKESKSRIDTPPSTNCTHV

**Q.** Which Ki [1] does the source give for galanin (1-16) (peptide) here?
**A.** 20.1 nM and 22.6 nM and 15.6 nM

**Q.** What about the calcium assay EC50 (peptide on WT receptor; HEK293/Gα16 cells) [2] of the same molecule?
**A.** 23.5 nM and 12.5 nM and 12.6 nM

**Q.** With “galanin (full length, unlabeled) (peptide)” as the molecule, how does the calcium assay EC50 (galanin; HEK293/Gα16 cells) [3] read?
**A.** 35.3 nM and 27.2 nM and 64.9 nM

**Q.** What about the calcium assay EC50 (peptide on WT receptor; HEK293/Gα16 cells) [2] of the same molecule?
**A.** 8.27 nM and 11.6 nM

**Q.** Which Ki [4] does the source give for galanin (1-16, Y9A) (peptide) here?
**A.** 2880 nM and 2850 nM and 1690 nM

**Q.** What about the Ki [1] of the same molecule?
**A.** > 100000 nM

**Q.** And the calcium assay EC50 (peptide on WT receptor; HEK293/Gα16 cells) [5]?
**A.** > 10000 nM

**Q.** And the calcium assay EC50 (peptide on WT receptor; HEK293/Gα16 cells) [2]?
**A.** > 10000 nM

**Q.** For “spexin (mature, 14 amino acids) (peptide)”, which calcium assay EC50 (spexin) [6] is on record?
**A.** 327 nM and 178 nM and 81.4 nM

**Q.** With “ARM1896: galanin segment 2-11 (WTLNSAGYLL; Galanin; UniProt P22466 34-43, looked up, fragment)” as the molecule, how does the “selectivity for GAL1R” value (GAL2R over GAL1R) read?
**A.** low selectivity

**Q.** With galanin (1-13) (peptide) as the molecule, how does the Ki [4] read?
**A.** 343 nM and 409 nM and 314 nM

**Q.** What about the Ki [1] of the same molecule?
**A.** 41.4 nM and 11.1 nM and 17.8 nM

**Q.** And the calcium assay EC50 (peptide on WT receptor; HEK293/Gα16 cells) [5]?
**A.** 324 nM and 328 nM and 268 nM

**Q.** And the calcium assay EC50 (peptide on WT receptor; HEK293/Gα16 cells) [2]?
**A.** 12.8 nM and 14.6 nM and 69 nM

**Q.** For “GALP (1–60): galanin-related peptide, galanin homologue; amino acids 9–21 identical to first 13 amino acids of galanin (APAHRGRGGWTLNSAGYLLGPVLHLPQMGDQDGKRETALEILDLWKAIDGLPYSHPPQPS; Galanin-like peptide; UniProt Q9UBC7 25-84, looked up)”, which “affinity for GAL2R versus GAL1R” value (GAL2R over GAL1R) is on record?
**A.** higher affinity for GAL2R over GAL1R

**Q.** What does the source list for G1-truncated galanin (2-16) (peptide)?
**A.** Ki [4]: > 10000 nM; Ki [1]: 80.1 nM and 42.6 nM and 27 nM; calcium assay EC50 (peptide on WT receptor; HEK293/Gα16 cells) [5]: 3160 nM and 3440 nM and 3340 nM; calcium assay EC50 (peptide on WT receptor; HEK293/Gα16 cells) [2]: 50.1 nM and 12.3 nM

**Q.** What does the source list for GWTLNSAGALLGPHAV (numbers count on: the mature protein) [Gal (1-16, Y9A)]?
**A.** Ki [7]: > 100000 nM; Ki [8]: 2480 nM

**Q.** Which Ki [7] does the source give for WTLNSAGYLLGPHAV (numbers count on: the mature protein) [Gal (2-16)] here?
**A.** 49.9 nM

**Q.** What about the Ki [8] of the same molecule?
**A.** > 10000 nM

**Q.** With GWTLNSAGYLLGP (numbers count on: the mature protein) [Gal (1-13)] as the molecule, how does the Ki [7] read?
**A.** 23.5 nM

**Q.** And the Ki [8]?
**A.** 356 nM
